Experimental findings from article PMC8294335 (Molecular Cell, 2021) are described below.

This data set deals with the molecule itself. The experiment in a line: cryo-EM structure.

B1: GFP-HCN4ΔC (rabbit HCN4 carrying an internal deletion from residues 783 to 1064, with N-terminal decahistidine-eGFP tag) (natural protein)
chain: MDKLPPSMRKRLYSLPQQVGAKAWIMDEEEDAEEEGAGGRQDPRRRSIRLRPLPSPSPSPSAAAAAAGGAESRGAALGGAADGEGPARGAAKSSTNGDCRRFRGSLASLGSRGGGGGGGSTGGGSHGHLHDSAEERRLIAEGDASPGEDRTPPGLAAEPERPGAPAPPAASPPQVPSSCGEQRPADAAVKVEGGAAAGDQILPEAEARLGQAGFMQRQFGAMLQPGVNKFSLRMFGSQKAVEREQERVKSAGFWIIHPYSDFRFYWDLTMLLLMVGNLIIIPVGITFFKDENTTPWIVFNVVSDTFFLIDLVLNFRTGIVVEDNTDIILDPRRIKMKYLKSWFVVDFVSSIPVDYIFLIVETRIDSEVYKTARALRIVRFTKILSLLRLLRLSRLIRYIHQWEEIFHMTYDLASAVVRIVNLIGMMLLLCHWDGCLQFLVPMLQDFPDDCWVSLNNMVNNSWGKQYSYALFKAMSHMLCIGYGRQAPMGMSDVWLTMLSMIVGATCYAMFIGHATALIQSLDSSRRQYQEKYKQVEQYMSFHKLPPDTRQRIHDYYEHRYQGKMFDEESILGELSEPLREEIINFNCRKLVASMPLFANADPNFVTSMLTKLRFEVFQPGDYIIREGTIGKKMYFIQHGVVSVLTKGNKETKLADGSYFGEICLLTRGRRTASVRADTYCRLYSLSVDNFNEVLEEYPMMRRAFETVALDRLDRIGKKNSILLHKVQHDLSSGVSNYQENAIVQRIVQHDREMAHCARRAQATTPVAPAIWTPLIQAPLQAAQDLKLISASQPALPQDGAQTLRRASPHSSSGESVAALPPFPRAPGRPPGAGPGQHVTLTLPRKASSGSLPPPLSLFGPRAAPAGGPRLTAAPQREPGAKSEPVRSKLPSNL
With B1, the “stoichiometry N” value worked out at 4.

As usually defined, the stoichiometry N is a count of units in the complex or per binding partner.
